Experiments:
[1] = molecular target: T1, Human CD40-his protein (Acro biosystems, Cat # CD0-H5228) (human, UniProt P25942 21-193); test: SPR, Biacore T200; antibody captured, antigen flowed; 1:1 Langmuir fit
T1 construct: Bought reagent; not shown: his tag
Source text: (§1) Briefly, goat anti-mouse IgG (GE healthcare, Cat # BR100838, Mouse Antibody Capture Kit) was covalently linked to a CM5 or a Protein G chip (carboxy methyl dextran coated chip) via primary amines, using a standard amine coupling kit provided by Biacore (GE healthcare, Pittsburgh, Pa., USA). Un-reacted moieties on the biosensor surface were blocked with ethanolamine. […] Then, human CD40-his (Acro biosystems, Cat # CD0-H5228) or cynomolgus monkey CD40-his protein (Acro biosystems, Cat # CD0-052H6) in HBS EP buffer (provided by Biacore) was flowed onto the chip at a flow rate of 30 μL/min. The antigen-antibody association kinetics was followed for 2 minutes and the dissociation kinetics was followed for 10 minutes. The association and dissociation curves were fit to a 1:1 Langmuir binding model using BIA evaluation software.

[2] = molecular target: T2, cynomolgus monkey CD40-his protein (Acro biosystems, Cat # CD0-052H6) (cynomolgus monkey, UniProt G7PG38 21-193); test: as above
T2 construct: Bought reagent; also called Cynomolgus CD40-his
T2 sequence (G7PG38 entry or part of it limits assumed): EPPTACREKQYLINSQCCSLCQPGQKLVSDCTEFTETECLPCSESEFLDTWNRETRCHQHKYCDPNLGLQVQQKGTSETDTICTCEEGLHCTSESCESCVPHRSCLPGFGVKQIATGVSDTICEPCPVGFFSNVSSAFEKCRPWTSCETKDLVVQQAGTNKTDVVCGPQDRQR
Source text: as §1

[3] = molecular target: T3, human CD40-Fc protein (amino acid residue 21-193 of SEQ ID NO: 67 linked to N-terminus of amino acid residue … (human, biotin-labeled in the capture ELISA and in the benchmark blocking ELISA; unlabeled when coated in the ligand blocking ELISA); test: capture ELISA (antibody captured on coated anti-IgG F(ab')2, biotin-labeled human CD40-Fc in solution, streptavidin-HRP, OD(450-630))
T3 construct: also called biotin-labeled human CD40-Fc; human CD40-Fc-biotin
T3 sequence (chain, as listed by the source): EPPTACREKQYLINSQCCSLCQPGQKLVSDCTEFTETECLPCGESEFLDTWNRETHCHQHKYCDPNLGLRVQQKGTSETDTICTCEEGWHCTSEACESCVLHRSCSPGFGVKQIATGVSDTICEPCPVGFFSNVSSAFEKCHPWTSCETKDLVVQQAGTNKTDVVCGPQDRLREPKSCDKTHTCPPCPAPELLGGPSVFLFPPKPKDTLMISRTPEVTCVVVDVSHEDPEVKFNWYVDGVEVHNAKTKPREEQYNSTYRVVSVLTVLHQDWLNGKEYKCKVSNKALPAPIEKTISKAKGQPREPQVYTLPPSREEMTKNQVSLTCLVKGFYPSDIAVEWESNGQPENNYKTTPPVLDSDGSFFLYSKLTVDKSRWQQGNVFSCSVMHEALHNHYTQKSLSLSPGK
Method: Plates were washed 4 times with wash buffer (PBS+0.05% Tween-20, PBST) and then blocked with 200 μl/well blocking buffer (5% w/v non-fatty milk in PBST) for 2 hours at 37° C. […] After a final wash, plates were incubated with 100 μl/well ELISA substrate TMB (Innoreagents, Cat # TMB-S-002). The reaction was stopped in 15 minutes at 25° C. with 50 μl/well 1M H₂SO₄, and the absorbance was read at 450 nm and plotted against antibody concentration. Data were analyzed using Graphpad Prism software and EC₅₀ values were reported.

T1 sequence (P25942 21-193 limits assumed): as the sequence (G7PG38 entry or part of it limits assumed) above, with S43G, R56H, Q70R, L89W, S95A, P101L, L106S, R142H, Q172L counted along it

Kd [1]: 0.217 nM | koff [1]: 0.000542 s⁻¹ | kon [1]: 2.49e+06 M⁻¹ s⁻¹ | Kd [2]: 0.486 nM | koff [2]: 0.00119 s⁻¹ | kon [2]: 2.45e+06 M⁻¹ s⁻¹ | EC50 (read off the curve) [3]: ~0.2 nM
B1: mouse anti-CD40 monoclonal antibody C1C1 (antibody, V domains shown)
VH: EVKLVESGGGLVKPGASLKLSCAASGFTFSNYGMSWVRQNSDKRLEWVASISSGGDDTYYPDNVKGRCTISRENAKNTLYLEMSSLKTEDTALYYCTRAGGKAMDYWGQGTSVTVST
VL: DIVLTQSPATLSVIPGNSVSLSCRASQSIRDNLHWYQQKSHESPRLLINYASQSISGIPSRFSGSGSGTDFTLTINSVETEDFGIYFCQQFNSWPLTFGGGTKLELK
notes: those are used here for the chimeric antibody only; also called Mouse C1C1; mouse C1C1

Reference: patent US20200332017A1 (SALUBRIS CHENGDU BIOTECH, published 2020)
